We go through two molecules from paper PMC2699497.

Data set [1] addresses T1, human uracil DNA glycosylase (UNG) (human, UniProt P13051 94-313). Put plainly: fluorescence anisotropy. On the technique in general: In fluorescence polarisation assays a small probe gives low polarisation when free and higher when bound to something large.
Data set [2] deals with T1, human uracil DNA glycosylase (UNG). Put plainly: NMR HSQC titration, relaxation dispersion.

T1 sequence (P13051 94-313): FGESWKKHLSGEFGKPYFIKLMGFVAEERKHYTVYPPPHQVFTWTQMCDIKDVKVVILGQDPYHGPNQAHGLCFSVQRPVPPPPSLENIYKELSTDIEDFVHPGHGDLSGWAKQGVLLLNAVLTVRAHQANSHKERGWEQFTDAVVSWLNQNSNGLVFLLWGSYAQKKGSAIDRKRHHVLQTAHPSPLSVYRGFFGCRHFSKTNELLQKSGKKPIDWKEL

B1: 5'-FAM 10-mer nontarget duplex (dsDNA)
DNA 1: TCGATCGATG
DNA 2: CATCGATCGA
B1 came in with a Kd in data set [1] of 29 ± 0.4 µM.

B2: unlabeled 10-mer nontarget duplex (NMR) (dsDNA)
DNA 1: CTGGATCCAG
DNA 2: CTGGATCCAG
As for B2, the binding result in data set [2] is given as “binds”.

In general, Kd refers to the concentration at which binding is half-saturated. Read a low Kd as higher affinity.
